Experimental data taken from PMC12772324.

Biological target: T1, HutC (Pseudomonas aeruginosa PAO1) (UniProt Q9HU78)
T1 sequence: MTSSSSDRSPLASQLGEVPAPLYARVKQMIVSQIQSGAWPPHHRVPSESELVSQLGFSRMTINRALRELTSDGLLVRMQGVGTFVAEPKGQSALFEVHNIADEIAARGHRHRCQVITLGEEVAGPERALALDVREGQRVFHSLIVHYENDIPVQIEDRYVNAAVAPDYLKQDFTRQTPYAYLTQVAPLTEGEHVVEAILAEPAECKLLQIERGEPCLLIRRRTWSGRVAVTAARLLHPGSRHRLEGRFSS
Test: EMSA
Details: 10 mM Tris-HCl pH 7.5, 100 mM NaCl, 1 mM DTT, 3 ng/uL sheared salmon sperm DNA, 1% glycerol, 2 ng/uL probe, 20 min at room temperature; 6% native gel, 0.5x TBE

“ACGGCGGCCTGAGCCGCCGGCCAATAACAATGATCGAGGCCGTTCCCCCGGGCGCGGCCCGCAGGTTTTCCAACTGCCTTTCCCAATCGTGCATCTGGAGCGTCGAACC (double strand) [hutG -108 to -1]” was tested, and the binding was “binds”.
